Assay results from patent US20120207760A1 (THERACLONE SCIENCES, published 2012).

B1: TCN-526 (5084_C17) (antibody, V domains shown)
VH: EVLMVESGGGLVQPGGSVRLSCVASGFSFSSHWMTWVRQAPGKGLEWVANIEDDGGDKYYVDSVKGRFIISRDNAKNSVYLQMNSLRAEDTAVYFCARGSGSSDRSDYDPHYYYYLDVWGKGATVTVSS
VL: DIQLTQSPSSLSASVGDRVTITCRASQSISRYLNWYQQKPGKAPKLLLFAASTLLDGVPSRFSGSGSGTDFTLTISSLQPEDFATYYCQRNHSPSWTFGQGTRVEIK
B2: TCN-539 (5056_A08) (antibody, V domains shown)
VH: QVQLVESGGGVVQPGRSLRLSCAASEITFITYAMHWVRQAPGKGLEWVALISDDGSNKFYADSVKGRFTISRDNSKNTLYLQMNSLRAEDTAAYYCAREGVYFDSGTYRGYFDYWGQETLVTVSS
VL: EIVLTQSPATLSLSPGERATLSCRASQSVSSYLAWYQQKPGQAPRLLIYDASNRATGIPARFSGSGSGTDFTLTISSLEPEDFAVYYCQQRSHWPPITFGQGTRLEIK
B3: TCN-530 (5248_H10a) (antibody, V domains shown)
VH: QVQLVQSGAEVRKPGSSVKVSCKASGGPFMSYAIGWVRQAPGQGLEWMGGINPVFGRPHYAQKFQGRVTIATDDSTKTSYMELSSLTSEDTGMYYCASRYSRSSPGTFESWGQGTLVTVSS
VL: EIVMTQFPATLSVSPGERVTLSCRASQSVSNNLAWYQQKPGQPPRLLIYDASTRATGVPAKFSGTGSGTEFTLSISSLQSEDFAVYYCQQYHNWPPSYSFGLGTKLEIK
B4: TCN-527 (5086_C06) (antibody, V domains shown)
VH: QVQLQESGPGLVKPSETLSLNCAVSGGSISNYYWSWIRQPPGKGLEWIGYISYNGRPKYNPSLTSRVTISVDTSKDQFSLELRSVTAADTALYYCARETRFGELLSPYDAFEIWGQGTMVTVSS
VL: DIQMTQSPSSLSASVGDRVTMTCRASQNIRSYLNWYQQRPGTAPKLLIYAASTLHSGVPSRFSGGGSGTDFTLTINNLQPEDFASYYCQQSYDNPQTFGQGTKVEIK
B5: TCN-528 (5087_P17) (antibody, V domains shown)
VH: QVQLVQSGSEVKKPGASVKVSCKASGYTFTNYDINWIRQAPGQGLEWMGWINPNSGTTGSAQRFQGRVTITVDTSITTVYMELSSLRSDDTAIYYCARGRELLRLQHFLTDSQSERRDCFDPWGQGTLVTVSS
VL: DIQMTQSPSSLSASVGDRVTITCRANQDIGIYLNWYQQNPGKVPKLLLHGASSLQGGVPSRFSASGSGTDFTLTIHSLQPEDLATYYCQQSRRLPYTFGQGTRVELK
B6: TCN-546 (5089_L08) (antibody, V domains shown)
VH: QVQLQQWGAGLLKPSETLSLTCGVYGGSLSDYYWSWIRQPPGKGLEWIGEINHSGGTNYNPSLKRRVTISVDTSKKQFSLKMNSVTAADTAVYYCARGTDPDTEVYCRAGNCAAFDFWGQGTLVTVSS
VL: EIVLTQSPGTLSLSPGERATLSCRASHFVIGRAVAWYQQKPGQAPRLLIYGASSRATGIPDRFSGSGSGTDFTLTISRLETEDFAVFYCQHYGSSPRYAFGQGTKLEIK
B7: TCN-523 (5248_A17) (antibody, V domains shown)
VH: QVQLVQSGAEVKKPGSSVKVSCKASGGSFSNYAFSWVRQAPGQGLEWMGGTIPLLGTTNYAQKFQGRVTISADQFTSTAYMELGSLRSEDTAVYYCTRRKMTTAFDSWGQGTLVTVSS
VL: QPVLTQPPSASASLGASVTLTCTLSSAYSNYKVDWYQQRPGKGPRFVMRVGTGGIVGSKGDGIPDRFSVLGSGLNRYLTIKNIQEEDESDYHCGADHGSGSNFVSPYVFGGGTKLTVL
B8: TCN-535 (5246_P19) (antibody, V domains shown)
VH: QVQLVQSGSEVKKPGTSVKVSCTASGSVFTNYGISWVRQAPGQGLEWMGGIIPLFGAAKYAQKFQGRVTITADESTKTVYMELSRLTSKDTAIYFCAKAPRVYEYYFDQWGQGTPVTVSS
VL: EIVLTQSPGTLSLSPGERATLSCRASQSVSSSQLAWYQQKPGQAPRLIIYGASTRATGIPDRFSGSGSGTDFTLTIGRLEPEDFAVFFCQQYSTSPPTFGQGTKVDFK
B9: TCN-547 (5092_F11) (antibody, V domains shown)
VH: QVQLQESGPGLVKPSQTLSLTCTVSGDSISSVDHYWSWIRQHPVKGLEWIGFMYYSASTYYNPSLKSRVTISTDTSKNQFSLRLSSVTAADTAVYYCARGTCAGDCSLHYYYYGLDVWGQGRTVTVSS
VL: DIQMTQSPSSLSASVGDRVTITCRASQSISSYLNWYQHKPGKAPKVLMYAVSILQSGVPSRFSGSGSGADFTLTISSLQPEDFATYYCQQSYSSPLTFGGGTKVEIK
B10: TCN-531 (5091_H13) (antibody, V domains shown)
VH: EVQLVESGGDLVQPGRSLKLSCTGSGFTFGDYGVTWVRQAPGKGLEWVGFIRTRPWGGTADTAASVKGRFTISRDDSKSLAYLQMNSLKTEDTAVYYCCRDAPPNVEVASMTNWYFDLWGRGTLVTVSS
VL: DIQLTQSPSSLSASVGDRVTITCRASQGILNCLAWYQQKPGKVPNLLMYAASTLQSGVPSRFSGSGFGTDFTLTISSLQPEDVATYYCQTYGGVSTFGGGTKVEIR
B11: TCN-563 (5237_B21) (antibody, V domains shown)
VH: QVQLAQSGAEVKRPGSSVKVSCTASGGIFRKNAISWVRQAPGQGLEWMGGIIAVFNTANYAQKFQGRVKITADESGNTAYMELSSLRSDDTAVYYCASHPKYFYGSGSYPDFWGQGTLVTVSS
VL: QSALTQPRSVSGSPGQSVTISCTGSSSDVGASNSVSWYQQHPGKAPKLVIYDVTERPSGVPHRFSGSKSGNTASLTVSGLQPEDEADYFCCAYGGKYLVVFGGGTKVTVL
B12: TCN-544 (5082_A19) (antibody, V domains shown)
VH: QVQLQESGPGLVKPSETLSLTCTVSRGSIGHYFWSWIRQPPGKGLEWIGYISYSGSTKYNPSLRSRVTISVDTSKNQFSLNLNSVTATDTALYYCAREDYDILTGAGPGMEVWGQGTTVTVSS
VL: QSMLTQPPSASGTPGQRVTISCSGSSSNIGSNTVNWFKHLPGTAPKLLIYRNDLRPSGVPDRFSGSKSGTSASLAISGLQSEDEADYYCATWDDSLNGFYVFGTGTKVTVL
B13: TCN-533 (5256_A17) (antibody, V domains shown)
VH: QVQLVQSGADVKKPGSSVTVSCKASGGSFSNYGINWVRQAPGQGLEWMGGIIPLINAPNYAPKFQGRVTITADMFSNIVSLQLTSLRTDDTAVYYCARRKMTTAIDYWGQGTLVTVSS
VL: QPVLSQPPSASASLGASVTLTCTLSSGFDNYQVAWYQQRPGKGPRFVMRVGNGGNVASKGDGIPDRFSVSGSGLNRYLTIKNIQEDDESDYYCGADHGSGNNFVSPYVFGGGTKLTVL
B14: TCN-540 (5060_F05) (antibody, V domains shown)
VH: QVQLVQSGGGVVQPGRSLRLSCAASGFTFSSYAMHWVRQAPGKGLEWVAIISYDGNDQYYTDSVKGRFTISRDSSKVYLQMHRLRPEDTAVYYCAKEFETSGYFHGSFDYWGQGILVTVSS
VL: QSALTQPASVSGSPGQSITISCTGTSSDVGGYNYVSWYQQHPGKAPKLLIYEVTNWPSGVSNRFSGSKSGNTASLTISGLQAEDEADYYCSSYAGSSTWVFGGGTRVTVL
B15: TCN-548 (5092_P01) (antibody, V domains shown)
VH: QVQLQESGPGLVKPSETLSLTCTVSSGPMSDYYWSWIRQPPGKGLEWIGHVSVSHGGRTKSNPSVMSRVTISVETSKNQFSLKLTSVTAADTAVYYCARLNYYDRSGYHSPDGPSNNWFDPWGQGTLVTVSS
VL: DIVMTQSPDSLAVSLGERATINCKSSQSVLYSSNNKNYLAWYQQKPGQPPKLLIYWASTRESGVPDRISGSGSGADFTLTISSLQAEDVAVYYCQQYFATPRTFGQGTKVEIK
B16: TCN-545 (5082_I15) (antibody, V domains shown)
VH: QVQLQQWGAGLLKPSETLSLSCAVFGGSFSDYYWTWIRQPPGKGLEWIGEIKHSGRTNYNPSLESRVTISVDTSKNQFSLKLSSVTAADTAIYYCARGTDPDTEGYCRSGSCSAFDFWGQGTLVTVSS
VL: EIVLTQSPGTLSLSPGERATLSCRASHFVNYRSLAWYQQTPGQVPRLLIYGASTRATGIPDRFSGSGSGTDFTLTISRLEPEDFAVYFCQQYGGSPRYTFGQGTRLEIK
B17: TCN-542 (5079_A16) (antibody, V domains shown)
VH: QVQLQESGPGLVKPSQTLSLTCTVSGGSISSGNYYWNWVRQHPGKGLEWIGYIYYRGSTFYNPSLKSRVTISIDTSKNQFSLRLSSVTAADTAVYYCAKDTRSSLDNYQYGMDVWGQGTTVTVSS
VL: QTVVTQEPSLTVSPGGTVTLTCASSTGAVTSSYFPNWFQQKPGQAPRPLIYSTTIRHSWTPARFSGSLLGGKAALTLSGVQPEDEADYYCLLYSGGDPVAFGGGTKLTVL
B18: TCN-532 (5262_H18) (antibody, V domains shown)
VH: QVQLQESGPGLVKPSETLSLTCTVSGGSVSSETYYWSWIRQPPGKGLEWIGYIYYIGNTDYRPSLKSRVTISLDTSKNQFSLKLSSVTAADTAVYYCARGAYYDSSGYPAFYIWGQGTMVTVSS
VL: QSVLTQPPSVSGAPGQRVTISCTGSSSNIGSDYDVHWYKQLPGTAPKLLIFGNSNRPSGVPDRFSGSKSGTSASLAITGLQAEDEADYYCQSYDSSLSGFHVFGSGTKVTVL
B19: TCN-521 (3280_D18) (antibody, V domains shown)
VH: EVQLVQSGGGLVQPGGSLRLACVVSGFTVTSNYITWVRQAPGKGLEWVSVIYSHGRAYYSASVNGRFTISRHTSKNTVYLEMNSLRPEDTAVYYCAGGGLVGGYDEYFFDYWGQGTLATVSS
VL: ETVLTQSPGTLSLTPGERATLSCRVGQSVSGSHLAWYQQKPGQAPRLLIYGASSRATGIPDRFGGSVSGTDFTLTISRLEPEDSAVYYCQQYGDSRYTFGQGTKLEIK
B20: TCN-534 (5249_B02) (antibody, V domains shown)
VH: QVQLVQSGAEVKKPGSSVKVSCRESGGTFNGYTITWVRQAPGQGLEWMGGIIPMMGTVNYAQKLQGRVTITTDYFTKTAYMDLNNLRSEDTAMYYCVKIRYTGQQLLWGQGTLVTVSS
VL: DIQMTQSPSTLSASIGDRVTITCRASQSIASWLAWYQQKPGKAPKLLIYEAVNLESGVPSRFSGSGSGTDFTLTISSLQPDDFATYFCQHYGTISQTFGGGTKVEIK
B21: TCN-536 (5095_N01) (antibody, V domains shown)
VH: QVQLQQWGAGLLKPSETLSLTCAVYGGSFSVSGYYWSWIRQPPGRGLEWIGEISHGGSTNYNPSLKSRVTISVDTTKNQFSLRLSSVTAADTAVYYCARGTDPDTEVYCRVGNCAAFDYWGQGSLVTVSS
VL: EIILAQSPGTLSLSPGERATLSCRASQFVSTRSLAWYQQRPGQAPRLLIYGASSRATGIPDRFSGSGSGTDFTLTISRLEPEDFAVYYCQHYGYSPRYAFGQGSKVEIK
B22: TCN-543 (5081_G23) (antibody, V domains shown)
VH: QVHLVQSGAEVRKPGDSVKVSCKTSGYTFSTYPVAWVRQVPGQGLEWMGWISTYNGNTNFAQNFQGRVTLTTDTTTNTAYMEVRSLKFDDTAVYYCARVEGSYRDFWNNQNRFDPWGQGTLVTVSS
VL: SYVLTQPPSVSVAPGQTARISCGGSNIGGKSVHWYQQKPGQAPVLVVYDDSGRPSGIPERFSGSNSGDTATLTISRVEAGDEADYFCQVWDNFGGVFGTGTKVTVL

These binders were tested against Hemagglutinin of influenza A/Japan/305/57 (H2N2), on inactivated whole virions (Influenza A virus A/Japan/305/1957 …, UniProt P03451 16-562) (assay: ELISA, B cell culture supernatant on inactivated whole virions).

Going from B1 to B2, the OD450 falls from 0.07 OD450 to 0.06 OD450.

First: B3
Second: B4
The OD450 of the first is higher: 1.73 OD450 for the first, 1.48 OD450 for the second.

First: B5
Second: B6
The OD450 of the first is higher: 2.82 OD450 for the first, 0.06 OD450 for the second.

First: B7
Second: B8
The OD450 of the first is higher: 1.62 OD450 for the first, 1.46 OD450 for the second.

Compared with B9, B10 is higher in OD450: 0.07 OD450 for the first, 0.67 OD450 for the second.

Compared with B11, B12 is lower in OD450: 1.23 OD450 for the first, 0.07 OD450 for the second.

Compared with B13, B14 is higher in OD450: 1.1 OD450 for the first, 3.62 OD450 for the second.

Compared with B15, B16 is lower in OD450: 0.09 OD450 for the first, 0.06 OD450 for the second.

Compared with B17, B18 is lower in OD450: 0.08 OD450 for the first, 0.07 OD450 for the second.

Going from B19 to B20, the OD450 falls from 3.1 OD450 to 2.56 OD450.

First: B21
Second: B22
The OD450 of the first is lower: 0.08 OD450 for the first, 3.62 OD450 for the second.
